This is an account of results in paper PMC7092949 (Biochemical and Biophysical Research Communications, 2004).

The experiment concerns the target T1, HR-N (SN50) peptide of the SARS-CoV spike protein (SARS-CoV, UniProt P59594 903-952).
T1 peptide: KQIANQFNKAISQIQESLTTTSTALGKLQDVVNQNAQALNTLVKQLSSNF
As to the kind of experiment: circular dichroism. A general note: Circular dichroism is the unequal absorption of left and right circularly polarised light.

On to LGDISGINASVVNIQKEIDRLNEVAKNLNESLIDLQELGK [HR-C (SC40) peptide of the SARS-CoV spike protein], for which the binding result is “binds”.
